The target of series [1] is T1, WDR76 (FLAG-HA, insect cell) (Homo sapiens, UniProt Q9H967 1-626).
T1 sequence: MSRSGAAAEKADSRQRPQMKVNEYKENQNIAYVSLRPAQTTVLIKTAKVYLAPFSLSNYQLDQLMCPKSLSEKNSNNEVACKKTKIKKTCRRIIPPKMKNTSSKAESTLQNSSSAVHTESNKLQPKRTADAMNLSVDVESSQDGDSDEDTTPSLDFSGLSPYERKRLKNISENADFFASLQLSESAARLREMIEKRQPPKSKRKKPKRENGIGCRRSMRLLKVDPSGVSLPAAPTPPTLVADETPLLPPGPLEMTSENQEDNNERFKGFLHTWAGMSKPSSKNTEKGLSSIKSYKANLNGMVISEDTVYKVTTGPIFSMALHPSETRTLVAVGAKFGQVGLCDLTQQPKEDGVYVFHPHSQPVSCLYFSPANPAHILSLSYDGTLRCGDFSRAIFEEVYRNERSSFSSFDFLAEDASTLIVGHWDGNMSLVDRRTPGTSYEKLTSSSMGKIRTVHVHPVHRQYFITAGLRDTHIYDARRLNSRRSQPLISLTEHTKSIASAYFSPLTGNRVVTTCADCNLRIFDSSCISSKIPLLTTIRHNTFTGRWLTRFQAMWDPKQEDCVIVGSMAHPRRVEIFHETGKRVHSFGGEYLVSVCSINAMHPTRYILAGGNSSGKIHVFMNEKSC
Briefly: EMSA. A general note: In EMSA bound probe runs differently from free probe, usually more slowly.

The target of a further series is T2, ZHX1 (UniProt Q9UKY1 55-830).
T2 sequence: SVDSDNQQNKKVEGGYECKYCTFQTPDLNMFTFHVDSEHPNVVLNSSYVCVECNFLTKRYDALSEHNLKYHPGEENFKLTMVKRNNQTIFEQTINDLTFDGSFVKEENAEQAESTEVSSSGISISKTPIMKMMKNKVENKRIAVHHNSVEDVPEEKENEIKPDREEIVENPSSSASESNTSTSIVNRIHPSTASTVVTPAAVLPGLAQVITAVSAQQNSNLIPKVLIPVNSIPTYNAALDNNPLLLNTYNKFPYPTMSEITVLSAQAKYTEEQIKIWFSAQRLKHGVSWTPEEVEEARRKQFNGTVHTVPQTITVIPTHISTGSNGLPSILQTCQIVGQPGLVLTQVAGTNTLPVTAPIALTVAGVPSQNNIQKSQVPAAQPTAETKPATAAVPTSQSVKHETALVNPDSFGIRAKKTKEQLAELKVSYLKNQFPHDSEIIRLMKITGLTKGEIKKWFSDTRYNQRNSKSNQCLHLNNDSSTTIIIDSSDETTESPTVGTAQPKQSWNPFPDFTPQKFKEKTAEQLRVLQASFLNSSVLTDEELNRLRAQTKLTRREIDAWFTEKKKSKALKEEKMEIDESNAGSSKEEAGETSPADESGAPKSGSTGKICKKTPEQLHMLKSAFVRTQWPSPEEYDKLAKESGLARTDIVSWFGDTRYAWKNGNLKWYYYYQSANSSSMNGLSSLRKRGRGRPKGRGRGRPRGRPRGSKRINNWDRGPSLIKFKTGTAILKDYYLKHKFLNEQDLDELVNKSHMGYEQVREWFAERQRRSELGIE
Briefly: EMSA.

Series [2] has as its target T3, WDR76 (FLAG-HA, HEK293 purified) (Homo sapiens, UniProt Q9H967 1-626).
T3 sequence: T1 sequence
Briefly: EMSA.

Another series addresses T4, WDR76 NTD (Homo sapiens, UniProt Q9H967 1-151).
T4 sequence: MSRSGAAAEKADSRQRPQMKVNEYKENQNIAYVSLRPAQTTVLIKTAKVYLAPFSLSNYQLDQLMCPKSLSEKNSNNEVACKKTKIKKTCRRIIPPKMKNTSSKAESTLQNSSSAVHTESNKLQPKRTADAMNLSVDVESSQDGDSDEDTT
Put plainly: filter binding.

The target of series [3] is T5, C3ORF37/HMCES full-length (UniProt Q96FZ2 1-354).
T5 sequence: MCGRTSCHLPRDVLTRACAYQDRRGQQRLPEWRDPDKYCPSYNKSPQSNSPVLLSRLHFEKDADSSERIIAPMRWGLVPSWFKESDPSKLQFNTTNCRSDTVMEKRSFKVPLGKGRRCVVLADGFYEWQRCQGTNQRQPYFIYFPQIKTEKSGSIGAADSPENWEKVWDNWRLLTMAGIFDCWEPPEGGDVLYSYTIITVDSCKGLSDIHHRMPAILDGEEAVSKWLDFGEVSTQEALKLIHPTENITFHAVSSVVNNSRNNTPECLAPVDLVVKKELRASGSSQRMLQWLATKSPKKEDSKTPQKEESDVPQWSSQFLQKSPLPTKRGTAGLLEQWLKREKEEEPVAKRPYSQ
Briefly: filter binding.

Series [4] concerns the target T1, WDR76 (FLAG-HA, insect cell). Put plainly: EMSA. This is another data set of the same source.

Like-named read-outs stand apart in the source and are kept apart here.

B1: hmC/hmC duplex (dsDNA)
DNA 1: GCGGCTGCGTGGGTCC
DNA 2: GGACCCACGCAGCCGC
modifications: 5-hydroxymethylcytosine at central CpG C8 of both strands
As for B1, the binding result in series [1] was “binds”; with ZHX1, “no binding”; in series [2], “binds”.

B2: hmC/C duplex (dsDNA)
DNA 1: GCGGCTGCGTGGGTCC
DNA 2: GGACCCACGCAGCCGC
modifications: 5-hydroxymethylcytosine at central CpG of one strand (strand not stated), C on the other
Regarding B2, the binding result with WDR76 NTD was “binds”.

B3: mC/mC duplex (dsDNA)
DNA 1: GCGGCTGCGTGGGTCC
DNA 2: GGACCCACGCAGCCGC
modifications: 5-methylcytosine at central CpG C8 of both strands
As to B3, the binding result with ZHX1 was “no binding”.

B4: C/C duplex (dsDNA)
DNA 1: GCGGCTGCGTGGGTCC
DNA 2: GGACCCACGCAGCCGC
For B4, the binding result (in the series with ZHX1; in series [3]) was “no binding” in each case.

B5: fC/fC duplex (dsDNA)
DNA 1: GCGGCTGCGTGGGTCC
DNA 2: GGACCCACGCAGCCGC
modifications: 5-formylcytosine at central CpG C8 of both strands
As to B5, the binding result (with ZHX1; in series [4]; in series [2]) was “no binding” in each case.

These data come from doi:10.1101/511394.
